# The nanobody polyreactivity screen of Harvey et al. (2022)
# Test: yeast display, Sf9 membrane polyspecificity reagent, FACS + sequencing; frameworks hold sequencing errors
# Procedure, shortened: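 Sorting gates, low and high (top ~1%), were placed on anti-HA fluorescence to track expression and on streptavidin fluorescence to track reagent binding. A clone's polyreactivity label is taken from the gate it came out of. The reagent was 10% biotinylated, detergent-solubilized Sf9 membrane, applied for 1 hour at 4 °C to galactose-induced yeast display cells.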
row,Sequence,polyreactivity (PSR sort gate)
1,QVQLVESGGGLVQAGGSLRLSCAASGRTLSLYAMGWYRQAPGKERELVATISKSGGSTDYADSVKGRFTISRDNAKNTVYLQMNSLKPEDTAVYYCAADANSWFTSYQVYGSEFDYWGQGTQVTVSS,low polyreactivity
2,QVQLVESGGGLVQAGGSLRLSCAASGRTLSNYAMGWYRQAPGKERELVAAISSSGSTNYADSVKGRFTISRDNAKNTVYLQMNSLKPEDTAVYYCAAESWFLRWYRYDYWGQGTQVTVSS,low polyreactivity
3,QVQLVESGGGLVQAGGSLRLSCAASGRTLSYYAMGWYRQAPGKEREFVAAITGSGGSTYYADSVKGRFTISRDNAKNNVYLQMNSLKPEDTAVYYCNATGLGVFTVEYYYWGQGTQVTVSS,low polyreactivity
4,QVQLVESGGGLVQAGGSLRLSCAASGRTLTRYTMGWYRQAPGKERELVATISRSGGNTHYADSVKGRFTISRDNAKNTVYLQMNSLKPEDTAVYYCNAVRYALYGYDYWGQGTQVTVSS,high polyreactivity
5,QVQLVESGGGLVQAGGSLRLSCAASGRTLVDYGMVWYRQAPGKERELVAVITSGGSTYYADSVKGRFTISRDNAKNTVYLQLNSLIQEDTAVYYCAADNCYRGYHSPYDYWGQGTQVTVSS,low polyreactivity
6,QVQLVESGGGLVQAGGSLRLSCAASGRTLVLYAMGWYRQAPGKERELVAAITWSGDSTYYADSVKGRFTISRDNAKNTVYLQMNSLKPEDTAVYYCAADKSYRRVYYWGQGTQVTVSS,low polyreactivity
7,QVQLVESGGGLVQAGGSLRLSCAASGRTLVPYAMGWYRQAPGKERELVAAISNVSSTNYADSVKGRFTISRDNAKNTGYLQMNSLKPEDTAVYYCNAVGVPSEYYSWGQGTQVTVSS,low polyreactivity
8,QVQLVESGGGLVQAGGSLRLSCAASGRTLWSYTMGWYRQAPGKESELVARITIGGSTNYADSVKGRFTISRDNAKNTVYLQMNSLKPEDTAVYYCNARASYSYGSYLSKSYGYDYWGQGTQVTVSS,high polyreactivity
9,QVQLVESGGGLVQAGGSLRLSCAASGRTLYDYAMEWYRQAPGKERELVAGITSGDSTYYADSVKGRFTISRDNAKNTVDLQMNSLKPEDTAVYYCAADSDTFYYTGYDYDYWGQGTQGTVSS,low polyreactivity
10,QVQLVESGGGLVQAGGSLRLSCAASGRTLYQYAMGWYRQAPGKERELVAAITWNGGSTYYADSVKGRFTISRDNAKNTVYLQMNSLKPEDTAVYYCAADTVRPWYAYKAHDYWGQGTQVTVSS,low polyreactivity
11,QVQLVESGGGLVQAGGSLRLSCAASGRTLYRYAMGWYRQAPGKERELVAAIRSGGRTNYSDSVKGRFTISRDNAKNTVYLQMNSLKPEDTAVYYCAARTLRYPSTYDYWGQGTQVTVSS,high polyreactivity
12,QVQLVESGGGLVQAGGSLRLSCAASGRTLYRYAMGWYRQAPGKERELVATITTGGSTNYADSVKGRFTISRDNAKNTVYLQMNSLKPEDTAVYYCNAGILSRWVRKYYYWGQGTQVTVSS,low polyreactivity
13,QVQLVESGGGLVQAGGSLRLSCAASGRTLYRYAMGWYRQAPGKERELVAVISWNAVGTYYADSVKGRFTISRDNAKNTVYLQMNSLKPEDTAVYYCAARKRVASQGYIRYNYWGQGTQVTVSS,high polyreactivity
14,QVQLVESGGGLVQAGGSLRLSCAASGRTLYSNAMGWYRQSPGKERELVAAISSRGGRTYYADSVKGRFTISRDNAKNTVYLQMNSLKPVDTAVYYCNAAYGTGRRQAKSDYWGQGTQVTVSS,high polyreactivity
15,QVQLVESGGGLVQAGGSLRLSCAASGRTLYYNTMGWYRPAPGKERELVSSIRWDGGRTYYADSVKGRFTISRDNAKNTVYLQMNSLKPEDTAVYYCAKDGCYYYGTYAYDGCFDYWGQGTQVTVSS,low polyreactivity
16,QVQLVESGGGLVQAGGSLRLSCAASGRTLYYYAMGWYRQEPGKERELVAAISWSGGRTYYADSVKGRFTISRDNAKNTVYLQMNSLKAEDTAVYYCAAQYISRGYTVDYWGQGTQVTVSS,high polyreactivity
17,QVQLVESGGGLVQAGGSLRLSCAASGRTNSFYAMGWYRQAPGKERELVAAISRGGTTNYADSVKGRFTISRDNAKNTVYLQMNSLKPEDTAVYYCAASYFRRGFYSIYEYDYWGQGTQVTVSS,low polyreactivity
18,QVQLVESGGGLVQAGGSLRLSCAASGRTQAFHAMGWYRQAPGKERELVAVIRNGTSTNYADSVKGRFTISRDNAKNTVYLQMNSLKPEDTAVYYCNVPYYLPSYLSGYDYWGQGTQVTVSS,low polyreactivity
19,QVQLVESGGGLVQAGGSLRLSCAASGRTQRYYAMGWYRQAPRKERELVAAITKSGGSTYYADSVKGRITISRDNAKNTVYLQMYSLKPEDTAVYYFNKVTYSRAQYIGGDGYYWGQGTQVTVSS,high polyreactivity
20,QVQLVESGGGLVQAGGSLRLSCAASGRTQSRYTMGWYRQAPGKERELVAAISTSGSTYYADSVKGRFTISRDNAKNTVYLQMNSLKPEDTAVYYCNAVRRYLQYATGYDYWGQGTQVTVSS,high polyreactivity
21,QVQLVESGGGLVQAGGSLRLSCAASGRTQYKYAMGWYRQAPGKERELVATISSGGRTKYADSVKGRFTISRDNAKNTVDLQMNSLKPEDTAVYYCAAQNRPRYYSGDYWGQGTQVTVSS,low polyreactivity
22,QVQLVESGGGLVQAGGSLRLSCAASGRTSAINAMGWYRQAPGKERELVADITRTGGTYADSVKGRFTISRDNAKNTVYLQMNSLKPEDTAVYYCAAVGPWRFDYWGQGTQVTVSS,high polyreactivity

row,Sequence,polyreactivity (PSR sort gate)
1,QVQLVESGGGLVQAGGSLRLSCAASGRTSDEYAMGWYRPAPGKERELVAAITSGGSTNYADSVKGRFTISRDNAKNTVYLQMNSLKPEDTAVYYCAADNIRTWRPIYDYWGQGTQVTVSS,low polyreactivity
2,QVQLVESGGGLVQAGGSLRLSCAASGRTSEIYTMGWYRQAPGKERELVASINTNYADSVKGRFTISRDNAKNTVYLQMNSLKPEDTAVYYCNADDTIEFNYWGQGTQVTVSS,low polyreactivity
3,QVQLVESGGGLVQAGGSLRLSCAASGRTSFYNAMGWYRQAPGKERELVAAISYRGTRTYYADSVKGRFTISRDNAKNTVYLQMNSLKPEDTAVYYCAKDSGYYTADDYDYWGQGTQVTVSS,low polyreactivity
4,QVQLVESGGGLVQAGGSLRLSCAASGRTSGFNTMGWYRQAPGKERELVAAISFSGGSTYYADSVKGRFTISRDNAKNTGYLQMNSLKPEDTAVYYCAAELERDEEYDYWGQGTQVTVSS,low polyreactivity
5,QVQLVESGGGLVQAGGSLRLSCAASGRTSGNYAMGWYRQAPGKERELVAAIRYSGSSTFYADSVKGRFTISRDNAKNTVYLQMNSLKPEDTAVYYCARDIRRKGFRYDYWGQGTQVTVSS,high polyreactivity
6,QVQLVESGGGLVQAGGSLRLSCAASGRTSKVYAMGWYRQAPGKERELVARITSSGVRTYYADSVKGRFTISRDNAKNTVYLQMNRLKPEDTAVYYCAKDARALWLHSGIYDYWGQGTQVTVSS,low polyreactivity
7,QVQLVESGGGLVQAGGSLRLSCAASGRTSLAYAMGWYRQAPGKERELVAGITSGGNTNYADSVKGRFTISCDNAKNTVYLQMNSLKPEDTAVYSCNKKKRWQWYSESVLDYLGFYSWGQGTQVTVSS,low polyreactivity
8,QVQLVESGGGLVQAGGSLRLSCAASGRTSRSYAMGWYRQAPGKERELVAAISWSGGSTYYADSVKGRFTMSRDNAKNTVYLQMNSLKPEDTAGYYCNALTLAGYDYWGQGTQVTVSS,high polyreactivity
9,QVQLVESGGGLVQAGGSLRLSCAASGRTSSINAMGWYRKAPGKERELVAVITGGGRTSYADSVKGRFTISRDNAKNTVYLQMNSLKPEDTAVYYCNATRSYYGYYYWGQGTQVTVSS,high polyreactivity
10,QVQLVESGGGLVQAGGSLRLSCAASGRTSTIYTMGWYRQAPGKEREIVASISAGAGTYYADSVKGRFTISRDNAKNTVYLQLNSLKPEDTAVYYCNASVYWRSTRRHQMDYWGQGTQVTVSS,high polyreactivity
11,QVQLVESGGGLVQAGGSLRLSCAASGRTSVKYAMGWSRQAPGKERELVATIRYRTASTYYADSVKGRFTISRDNAKNTVYLQMNSPKPEDTAVYYCAAATSYASPWWYLYYYWGQGSQVTVSS,high polyreactivity
12,QVQLVESGGGLVQAGGSLRLSCAASGRTSVLYAMGWYRQAPWKEREFVAAITWNSGSTYYADSVKGRFTISRDNAKNTVYLQMNSLKPEDTAVYYCNADYYFSSYRSTYDYWGQGTQVTVSS,low polyreactivity
13,QVQLVESGGGLVQAGGSLRLSCAASGRTSVRNAMGWYRQAPGKERELVAAISRRGTRTYYADSVKGRFTISRDNAKNTVYLQMNSLKPEDTAVYYCAASNGYQAVTYDYWGQGTQVTVSS,high polyreactivity
14,QVQLVESGGGLVQAGGSLRLSCAASGRTSVWYTMGWYRQAPGKEREFVASITGSGTYYADSVKGRFTISRDNAKNTVYLQMNSLKPEDTAVYYCAKRGYGYWGQGTQVTVSS,high polyreactivity
15,QVQLVESGGGLVQAGGSLRLSCAASGRTSYLYALGWYRQAPGKERELVAAISRGVGSTYYADSVKGRFTISRDNAKNTVYLQMHSLKPEDTAVYYCAAYRYTPWMYYWGQGTQVTVSS,high polyreactivity
16,QVQLVESGGGLVQAGGSLRLSCAASGRTSYTYVMGWYRQAPGTERELVAAIRLSGGNTYYADSVKGRFTISRDNAKNTVYLQMNSLKPEDTAVYYCAAHYWRHRKAYGYWGQGTQVTVSS,high polyreactivity
17,QVQLVESGGGLVQAGGSLRLSCAASGRTSYVYAMGWYRQAPGKERELVAAITSSGASTYYADSVKGRFTISRDNAKNTVYLQMNSLKPEDTAVFYCAAETYPVWGVAFYYWGQGTQVTVSS,high polyreactivity
18,QVQLVESGGGLVQAGGSLRLSCAASGRTVTYYVMGWYRQAPGNERELVARITSSGITYYADSVKGRFTISRDNAKNTVYLQMNSLKPEDTAVYYCAKRRNAWTPYRFDYWGQGTQVTVSS,high polyreactivity
19,QVQLVESGGGLVQAGGSLRLSCAASGRTVVNAMGWYRQAPGKERELVAAISSNGGRTYYADSVKGRFTISRDNAKNTVYLQMNSLKPEDTAVYYCATRWIKGRKMDYWGQGTQVTVSS,high polyreactivity
20,QVQLVESGGGLVQAGGSLRLSCAASGRTVVNAMGWYRQAPGKERELVAAISSNGGRTYYADSVKGRFTISRDNAKNTVYLQMTSLKPEDTAVYYCAKGLGIRPTYYYWGQGTKVTVSS,high polyreactivity
21,QVQLVESGGGLVQAGGSLRLSCAASGRTVYANAMGWYRQAPGKERELVAAISTGGDGTYYADSVKGRFTISRDNAKNPVYLQMNSQKPEDTAVYYCAVRHRASGMLYDYWGQGTQVTVSS,low polyreactivity
